Here are results for one molecule from publication doi:10.1101/2021.05.01.442081.

The target of this data set is T1, GST-FOXD3 (Mus musculus, UniProt Q61060 1-465).
T1 sequence: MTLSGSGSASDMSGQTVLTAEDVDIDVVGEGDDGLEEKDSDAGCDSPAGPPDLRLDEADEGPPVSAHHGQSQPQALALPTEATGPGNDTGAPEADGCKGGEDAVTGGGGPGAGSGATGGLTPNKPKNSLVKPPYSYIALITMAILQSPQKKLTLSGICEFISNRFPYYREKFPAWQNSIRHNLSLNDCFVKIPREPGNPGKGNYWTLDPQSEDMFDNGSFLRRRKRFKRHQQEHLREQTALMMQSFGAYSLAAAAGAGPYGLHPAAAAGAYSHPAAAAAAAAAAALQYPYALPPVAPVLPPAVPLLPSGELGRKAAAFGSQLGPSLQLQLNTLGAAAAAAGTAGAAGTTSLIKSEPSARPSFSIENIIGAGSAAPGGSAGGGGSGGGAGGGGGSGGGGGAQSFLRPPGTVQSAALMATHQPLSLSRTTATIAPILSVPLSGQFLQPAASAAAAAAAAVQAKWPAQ
Nature of the data set: EMSA.

B1: MERVL-LTR (dsDNA)
DNA 1: AGACTCAAAGCAAAACAGGCTCCTAGAGGGGAGGT
DNA 2: ACCTCCCCTCTAGGAGCCTGTTTTGCTTTGAGTCT
As to B1, the binding result is “binds”.
